Measured values published in patent US20170002361A1.

Target: Flag-tagged NS5B (hepatitis C virus)
Assay: cell-based or functional assay

“protein kinase C-related kinase 2 (PRK2) (from UniProt Q16513 1-984) (enzyme)” showed a level of p-NS5B (32P-orthophosphate metabolic labeling, immunoprecipitation, autoradiography) after PRK2 silencing with siPRK2-1 of 55%.
